B1: Azoarcus group I ribozyme (parent)
chain: GUGCCUUGCGCCGGGAAACCACGCAAGGGAUGGUGUCAAAUUCGGCGAAACCUAAGCGCCCGCCCGGGCGUAUGGCAACGCCGAGCCAAGCUUCGGCGCCUGCGCCGAUGAAGGUGUAGAGACUAGACGGCACCCACCUAAGGCAAACGCUAUGGUGAAGGCAUAGUCCAGGGAGUGGCGAAAGUCACACAAACCGG

Variants of B1 are the subject of this data set. The experiment in a line: reverse-splicing fitness (ratio to wild type); higher = more active; in vitro selection; Mg2+ level not given. The essentials: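 An in vitro group I ribozyme library with randomized positions was T7-transcribed and gel-purified. In triplicate, 10 pmol RNA in EPPS pH 7.5 was reacted with 50 pmoles of a 30-nt RNA substrate for 1 h at 37 °C across several added MgCl2 levels (1–48 mM), then stopped with EDTA. Products were reverse transcribed from a substrate-complementary primer, PCR-amplified and sequenced (HiSeq 4000). Fitness is a variant's read proportion after selection over that before, normalised to wild type.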
On to C82G A111C A120U C150U C169G, for which the reverse-splicing fitness worked out at 0.00542.
The result for C82A A111C A120U A145G C150U C169U U176G reads 0.00315; that for C82A A111U A145C C150U C169A, 0.0081.
The result for C82A A111C A120U A145U C150A C169G reads 0.00349; that for C82G A120G A145U C150U C169G U176A, 0.015.
The result for C82G A111C A120U A145C C150G U176C reads 0.00457.
For the variant A111G A120C A145G C150U C169U U176A, the reverse-splicing fitness was determined as 0.0456.
The result for C82G A111C A120C A145G C169U U176G reads 0.00614; that for C82G A111G A145U C150A C169U U176A, 0.0141; that for A111C C150A C169U U176A, 0.0226.
The result for C82G A111C A120U A145U C150A C169A U176C reads 0.00267; that for C82A A111G A120U A145U C150G C169A, 0.00373.
Next, C82U C150G C169U U176C: 0.01; C82A A120C A145C C169A U176C: 0.00953; C82A A111C A120U A145U C150A C169A U176G: 0.00272.
C82G A120G A145U C150U U176G: the reverse-splicing fitness amounted to 0.00475.
Regarding A111G A120G A145G C150G C169G U176A, the reverse-splicing fitness is 0.00945.
Turning to A111G A120U A145C C150G U176A, the reverse-splicing fitness was determined as 0.0114.
Next, C82U A111U A120C A145C C150A C169U U176G: 0.00541; C82A A111C A145C U176A: 0.0639; A111U A120C A145G C169G U176C: 0.0229.
Next, C82U A111U A120U A145G C150U C169G: 0.0051; C82G A111C A145U C169G: 0.0102; A111G A120C A145C C169U U176C: 0.061.
The result for C82A A120U A145G C169G U176A reads 0.00295; that for C82U A111C A120U A145U C150G C169A U176C, 0.00322.
Turning to A111G A120C A145C, the reverse-splicing fitness was 0.653.
In the case of C82A A145C C150A C169U U176G, the reverse-splicing fitness came to 0.00553.
The result for C82G A111C A145U C150G C169G reads 0.0063; that for C82A A111G A120G A145G C150A U176G, 0.00899; that for C82A A111G A120G A145G C150A U176C, 0.0203.
Next, A111C A145G C150G C169G U176C: 0.0102; C82A C150U C169A U176G: 0.00593; A120C C150A C169G: 0.00864.
As to C82G A111C A120G A145U C150U, the reverse-splicing fitness stood at 0.0124.
Next, C82A A111G A145C C150A U176C: 0.0184.
Next, C82A A111C C150U C169G: 0.00783; A120U A145C C150G C169U U176G: 0.00273; C82A A120U C150U C169A U176G: 0.00226.
Consider C82U A111G A120C C169G, for which the reverse-splicing fitness stood at 0.00773.
The result for A111G A145C C169A U176C reads 0.0139.
Turning to C82U A111C A120U A145G U176G, the reverse-splicing fitness came to 0.00307.
In the case of C82G A111G A120G A145C C150A U176C, the reverse-splicing fitness worked out at 0.0132.
The result for C82U A111U A120C C150U reads 0.0179; that for C82G A111C A120C C150U C169A U176A, 0.0126; that for C82U A111G A120U C150G U176G, 0.00216.
The result for C82A A111U A120U C150G C169A U176A reads 0.00623; that for A111C A145C, 0.768.
The result for C82U A120G A145C C150G C169U U176G reads 0.00443.
Consider A120G A145G C150G U176G, for which the reverse-splicing fitness came to 0.00816.
With A111U A145U C169G, the reverse-splicing fitness was found to be 0.0652.
The result for C82A A111U A120U C169G U176C reads 0.00453; that for C82U A145U C150G C169A, 0.00864.
As to C82G A111C A120U A145U C150U C169U U176A, the reverse-splicing fitness turned out to be 0.0031.
On to A111U A120C A145G C150U C169U U176C, for which the reverse-splicing fitness was found to be 0.0389.
For the variant A111G A145U C150G C169U U176A, the reverse-splicing fitness stood at 0.00751.
Regarding C82G A145C C150U C169G U176G, the reverse-splicing fitness was 0.00533.
Next, A120U A145U C150A C169U: 0.0358; C82A A111G A145C C150A C169A U176A: 0.0122.
Turning to C82G A111C A120U A145G C150A U176C, the reverse-splicing fitness was 0.0086.
For C82U A111U A145G C150U U176G, the reverse-splicing fitness came to 0.0188.
As to A111U A120U A145C C150U C169G U176A, the reverse-splicing fitness was 0.0032.
Next, C82U A111U A120G C169A U176C: 0.0221; C82G A111U C150U C169U U176A: 0.014; C82G A111G A120G A145G C150A C169A U176A: 0.0204.
Next, A111U A120U A145C C150U C169U: 0.0159; C82U A111C A120C A145C C150A U176A: 0.00991; C82U A120C A145G C150G C169U U176A: 0.0113.
The result for A120C C150A C169U U176C reads 0.0627.
C82G A111U A120C A145C C150U C169A U176G: the reverse-splicing fitness worked out at 0.00651.
Consider C82G A111U A120U A145U C150U C169U, for which the reverse-splicing fitness came to 0.00381.
On to A145U C150U U176A, for which the reverse-splicing fitness is 0.908.
The result for C82G A111U A120G A145G C150G C169U U176A reads 0.0116.
The result for C82A A111C A120G A145C C150A C169G U176G reads 0.00557; that for C82A A120U A145C C150G C169A U176G, 0.00213; that for C82G A120C C150U C169A U176C, 0.0133.
On to C82G C169G, for which the reverse-splicing fitness was 0.0111.
With C82U A111C A120C A145C C150G U176A, the reverse-splicing fitness was determined as 0.00512.
As for C82A C150U C169G U176A, the reverse-splicing fitness is 0.014.
C82G A111U A120U A145U C150U C169U U176C: the reverse-splicing fitness is 0.00369.
Consider C82A A111C A145G C150G U176G, for which the reverse-splicing fitness amounted to 0.00607.
The result for C82G A111G A145G C150A C169G reads 0.00938.
C82U A111U A120G A145C C150U C169G U176C: the reverse-splicing fitness worked out at 0.0111.

The values above are taken from the RNAGym collection of RNA variant scans (doi:10.1093/molbev/msab373).
